This passage reports Kd, koff and kon results from paper PMC9881579, “Reconfigurable asymmetric protein assemblies through implicit negative design” (Science (New York, N.Y.), 2022).

Settings in all cases: both partners purified
Assay [1] deals with T1, LHD275B.
T1 construct: de novo designed protomer; BLI: one protomer of the pair was Avi-tagged, biotinylated and immobilised; source: E. coli BL21 LEMO, purified (Ni-NTA, SEC)
Put plainly: BLI; biotinylated protomer on streptavidin biosensors, designed partner in solution; 25 °C; 10 mM HEPES pH 7.4, 150 mM NaCl, 3 mM EDTA, 0.05% Surfactant P20, 1 mg/ml BSA; global kinetic fit, 1:1 model. (In general: Biolayer interferometry detects binding as a change in optical thickness at a sensor tip.)

Assay [2] deals with T1, LHD275B. Nature of the assay: BLI; biotinylated protomer on streptavidin biosensors, designed partner in solution; 25 °C; 10 mM HEPES pH 7.4, 150 mM NaCl, 3 mM EDTA, 0.05% Surfactant P20, 1 mg/ml BSA; steady-state fit, 1:1 model.
Assay [3] deals with T2, LHD289B.
T2 construct: de novo designed protomer; BLI: one protomer of the pair was Avi-tagged, biotinylated and immobilised; source: E. coli BL21 LEMO, purified (Ni-NTA, SEC)
Put plainly: BLI; biotinylated protomer on streptavidin biosensors, designed partner in solution; 25 °C; 10 mM HEPES pH 7.4, 150 mM NaCl, 3 mM EDTA, 0.05% Surfactant P20, 1 mg/ml BSA; global kinetic fit, 1:1 model.

In assay [4] the target is T2, LHD289B. Nature of the assay: BLI; biotinylated protomer on streptavidin biosensors, designed partner in solution; 25 °C; 10 mM HEPES pH 7.4, 150 mM NaCl, 3 mM EDTA, 0.05% Surfactant P20, 1 mg/ml BSA; steady-state fit, 1:1 model.
For assay [5], the target named is T3, LHD284B.
T3 construct: de novo designed protomer; BLI: one protomer of the pair was Avi-tagged, biotinylated and immobilised; also called LHD284 protomer B; source: E. coli BL21 LEMO, purified (Ni-NTA, SEC)
Put plainly: BLI; biotinylated protomer on streptavidin biosensors, designed partner in solution; 25 °C; 10 mM HEPES pH 7.4, 150 mM NaCl, 3 mM EDTA, 0.05% Surfactant P20, 1 mg/ml BSA; global kinetic fit, 1:1 model.

Assay [6] addresses T3, LHD284B. Put plainly: BLI; biotinylated protomer on streptavidin biosensors, designed partner in solution; 25 °C; 10 mM HEPES pH 7.4, 150 mM NaCl, 3 mM EDTA, 0.05% Surfactant P20, 1 mg/ml BSA; steady-state fit, 1:1 model.
Assay [7] addresses T4, LHD278B.
T4 construct: de novo designed protomer; BLI: one protomer of the pair was Avi-tagged, biotinylated and immobilised; source: E. coli BL21 LEMO, purified (Ni-NTA, SEC)
Put plainly: BLI; biotinylated protomer on streptavidin biosensors, designed partner in solution; 25 °C; 10 mM HEPES pH 7.4, 150 mM NaCl, 3 mM EDTA, 0.05% Surfactant P20, 1 mg/ml BSA; global kinetic fit, 1:1 model.

Assay [8] deals with T4, LHD278B. Nature of the assay: BLI; biotinylated protomer on streptavidin biosensors, designed partner in solution; 25 °C; 10 mM HEPES pH 7.4, 150 mM NaCl, 3 mM EDTA, 0.05% Surfactant P20, 1 mg/ml BSA; steady-state fit, 1:1 model.
Assay [9] deals with T5, LHD101B (biotin on the Avi-tag where immobilised (Fig. S3D)).
T5 construct: de novo designed protomer; also called LHD101 protomer B; source: E. coli BL21 LEMO, purified (Ni-NTA, SEC)
Nature of the assay: BLI; biotinylated protomer on streptavidin biosensors, designed partner in solution; 25 °C; 10 mM HEPES pH 7.4, 150 mM NaCl, 3 mM EDTA, 0.05% Surfactant P20, 1 mg/ml BSA; global kinetic fit, 1:1 model.

Assay [10] has as its target T5, LHD101B. Put plainly: BLI; biotinylated protomer on streptavidin biosensors, designed partner in solution; 25 °C; 10 mM HEPES pH 7.4, 150 mM NaCl, 3 mM EDTA, 0.05% Surfactant P20, 1 mg/ml BSA; steady-state fit, 1:1 model.
The target of assay [11] is T6, LHD317B.
T6 construct: de novo designed protomer; BLI: one protomer of the pair was Avi-tagged, biotinylated and immobilised; source: E. coli BL21 LEMO, purified (Ni-NTA, SEC)
Put plainly: BLI; biotinylated protomer on streptavidin biosensors, designed partner in solution; 25 °C; 10 mM HEPES pH 7.4, 150 mM NaCl, 3 mM EDTA, 0.05% Surfactant P20, 1 mg/ml BSA; global kinetic fit, 1:1 model.

Assay [12] addresses T6, LHD317B. Put plainly: BLI; biotinylated protomer on streptavidin biosensors, designed partner in solution; 25 °C; 10 mM HEPES pH 7.4, 150 mM NaCl, 3 mM EDTA, 0.05% Surfactant P20, 1 mg/ml BSA; steady-state fit, 1:1 model.
Assay [13] has as its target T7, LHD298B.
T7 construct: de novo designed protomer; BLI: one protomer of the pair was Avi-tagged, biotinylated and immobilised; also called LHD298 protomer B; source: E. coli BL21 LEMO, purified (Ni-NTA, SEC)
Put plainly: BLI; biotinylated protomer on streptavidin biosensors, designed partner in solution; 25 °C; 10 mM HEPES pH 7.4, 150 mM NaCl, 3 mM EDTA, 0.05% Surfactant P20, 1 mg/ml BSA; global kinetic fit, 1:1 model.

The target of assay [14] is T7, LHD298B. Put plainly: BLI; biotinylated protomer on streptavidin biosensors, designed partner in solution; 25 °C; 10 mM HEPES pH 7.4, 150 mM NaCl, 3 mM EDTA, 0.05% Surfactant P20, 1 mg/ml BSA; steady-state fit, 1:1 model.
Assay [15] concerns the target T8, LHD202A.
T8 construct: de novo designed protomer; BLI: one protomer of the pair was Avi-tagged, biotinylated and immobilised; also called LHD202 protomer A; source: E. coli BL21 LEMO, purified (Ni-NTA, SEC)
Put plainly: BLI; biotinylated protomer on streptavidin biosensors, designed partner in solution; 25 °C; 10 mM HEPES pH 7.4, 150 mM NaCl, 3 mM EDTA, 0.05% Surfactant P20, 1 mg/ml BSA; global kinetic fit, 1:1 model.

In assay [16] the target is T8, LHD202A. Nature of the assay: BLI; biotinylated protomer on streptavidin biosensors, designed partner in solution; 25 °C; 10 mM HEPES pH 7.4, 150 mM NaCl, 3 mM EDTA, 0.05% Surfactant P20, 1 mg/ml BSA; steady-state fit, 1:1 model.
T8 sequence (main, as listed by the source): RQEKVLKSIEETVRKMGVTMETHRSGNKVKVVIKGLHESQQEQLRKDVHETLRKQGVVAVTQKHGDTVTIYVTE

B1: LHD275A (designed binder)
chain: GRQEKVLKSIEETVRKMGVEMLTFRAGNAVIVVIRGLHPEQAKQLLRDVSQTAHKQGVTVTLTFHGDVVFILVLVGASEEEQKHMQERIQELARIIHEAKRRGVSEEQLREIAEKMAKEIQEWG
Take B1: in [1], the Kd (as a rule, the free concentration of one partner at which half of the binding sites on the other are occupied at equilibrium, for simple one-to-one binding) came out at 2.9 ± 0.01 nM; the koff (usually the first-order rate constant of dissociation) came out at 0.00041 s⁻¹; the on-rate constant (kon) – broadly, the rate constant with which the complex forms – was 140000 M⁻¹ s⁻¹. The molecule further yielded a Kd in assay [2] of 4.5 ± 0.22 nM.

B2: LHD289A (designed binder)
chain: GRQEKVLKSIEETVRKMGVTMLTHRHGNVVFVVILGLHKQQALQLLRDVHRTAHKQGVTLSITFSGDIVVIAVTVGASEEEKKEVRKIVKEIAKQLRHAETEEEAKEIVQRVIEEWQEEG
In assay [3], B2 gave a Kd of 1080 ± 39 nM, a koff of 0.057 s⁻¹ and a kon of 53000 M⁻¹ s⁻¹. The molecule further gave a Kd in assay [4] of 610 ± 120 nM.

B3: LHD284A (designed binder)
chain: TDELLERLRQLFEELHERGTIIIVEVHINGERQTKYLILAPKEELKKHLERIREKIEREGSSEVEVKVTSGGTTWTFNEK
In [5], B3 came in with a Kd of 8.9 ± 0.13 nM, an off-rate constant (koff) of 0.0012 s⁻¹ and a kon of 130000 M⁻¹ s⁻¹. The molecule further came in with a Kd in [6] of 97 ± 13 nM.

B4: LHD278A (designed binder)
chain: GRQEKVLKSIEETVRKMGVRMLTHRGGNAVIVVIEGLHPSQIKQLMQDVIKTAKKQGVTVTITVSGDIVVIMVVVGASDEEQEEARRLVQEIARALQEAKRKGANEEQLEQLLRELLERAEREG
Take B4: in assay [7], the Kd was 0.8 ± 0.003 nM, the koff was 0.00022 s⁻¹ and the kon is 290000 M⁻¹ s⁻¹. The Kd in [8] was determined as 3.4 ± 0.69 nM.

B5: LHD101A (designed binder)
chain: GRQEKVLKSIEETVRKMGVTMETHRSGNEVKVVIKGLHIKQQRQLYRDVRETSKKQGVETEIEVEGDTVTIVVRE
modifications: biotin on the Avi-tag where immobilised (Fig. S3D, S24B)
For the molecule B5, in assay [9], the Kd was found to be 1.9 ± 0.04 nM, the off-rate (koff) stood at 0.0043 s⁻¹ and the kon was 2.2e+06 M⁻¹ s⁻¹. Binding in assay [10] was put at a Kd of 9.5 ± 0.76 nM.

B6: LHD317A (designed binder)
chain: GRQEKVLKSIEETVRKMGVRMLTHRGGNAVIVVIEGLHPSQAEQLLRDVHRTAKKQGVTVHLVFTGDIVVIMVVVGASEEEQEEMHRLVREIAEALHEAKRKGANEEQLEQLLRELLERAEREG
Take B6: in assay [11], the Kd is 34.7 ± 0.05 nM, the koff was determined as 0.0051 s⁻¹ and the on-rate (kon) is 150000 M⁻¹ s⁻¹. Moreover, the dissociation constant (Kd) in assay [12] was determined as 56 ± 2.3 nM.

B7: LHD298A (designed binder)
chain: GRQEKVLKSIEETVRKMGVTMETHRSGNTVKVVIKGLHESQQEQLHKDVEETVQKEGVFVLVSHHGDTVTIQVYE
In [13], B7 displayed a Kd of 3.5 ± 0.01 nM, a koff of 0.00022 s⁻¹ and an association rate constant (kon) of 64000 M⁻¹ s⁻¹. Besides, in assay [14], the Kd amounted to 16 ± 3 nM.

B8: LHD202B (designed binder)
chain: SVEFHIVNISEEQRQRIEEYVRRISKKEGTEVRFEKRDGELTIEVKNLHEKRLQEILEYIERVNK
In [15], B8 showed a Kd of 4800 ± 250 nM, a koff of 0.29 ± 0.05 s⁻¹ and a kon of 60000 M⁻¹ s⁻¹. The Kd in [16] was 2400 ± 170 nM.
